The data set is described as follows: label from the status in PepcDB records.

Here are results for 18 sequences from a protein production outcome set (Wang et al. 2014).

In the case of “MFRRTLPVLAAAVGLAAAAAGPATADDVPADRLPGHRVLDVMTFNIHHAQGTDDVLDLRRVANVIRKSGADVVGLQEVDKHYSARSDWADQPAELAELLGYHVVFGANIDNSPPAPGGHRVQYGTAILSRYPITASDNTWLYKSPGQEQRGLLHATLDVHGKKVEFYNTHLAAGSQADRLQQTAQVVDLIGTRKPGILVGDFNALPAAPESRPLQNAYTDAWAKSLHARGDGATYPAQSPTERIDLIYATRRVTPLVAQVLKDDPAASDHRPLLGKVLV”, the protein production entry is reported as “failed”. The entry for “MFRVFILFGFGFYLMQLHISGDISKYINMKYAYLSFSAMIAAFLLAIIQLIMVFRDEDIGAKTEHMGHTHDGENTILKKIMVYGLLSYALIAGFLFPVATLDSTIVSAKGFHFPKNNAAGDDPYAQNQFLRPDTSGYFGETDYEKMMAKEKAEIIDQNPIKVNDSNYLMTMEILYNYPGEFTGKQIEFTGFVYNDEVTKDNNLFLFRFGIIHCVADSGVFGMLVQMPEKTNLKNDTWLTVKGTITQEYYSPFKMNIPSVQVESYKEVAKPKSVYVYRKY” is “failed”; for “MFSAKKRDKCIGEMSEKQLDLLVIGGGITGAGIALDAQVRGIQTGLVEMNDFASGTSSRSTKLVHGGLRYLKQFEIKLVAEVGKERAIVYENAPHVTTPEWMLLPIFKDGTFGKFSTSLGLKVYDYLADVRKDERRYMLNEKQTLEKEPLLRKENLKGGGIYVEYRTDDARLTLEIMKEAVARGAVALNYMKVESFIYDQGKVVGVVAKDRLTDTTHTIYAKKVVNAAGPWVDTLREKDRSKHGKYLKLSKGVHLVVDQSRFPLRQAVYFDTESDGRMIFAIPREGKTYIGTTDTFYDKDIASPRMTVEDRDYILAAANYMFPSLNLTADDVESSWAGLRPLIHEEGKKASEISRKDEIFFSDSGLISIAGGKLTGYRKMAERTVDAVAQGLNVNEPCTTAAIRLSGGLAEGAQGFPRFLDEASRKGAKLGFDADEVRRLAKLYGSNVDHVLNYAYEGKEEAEHYGLPALLLGQLQYGVEQEMVATPLDFFVRRTGALFFNISLVHQWKEAVLRWMAEEFSWTEEEKTRFQNELETELKMAVDPLFQVEPTTVLEHHHHHH” it is “not failed”; for “MFSEVEMARDVAICAKHLNGQSPHQPILCRLLQDLIHEKACREHGFYLGITALKSIGNNKNNNIDNENNHQAKILTFPVSFTCRTFLPARGDILQGTVKKVLWNGAFIRSGPLRYAYLSLLKMPHYHYVHSPLSEDEKPHFQKDDLSKIAVGVVVRFQVLAVRFKERPHKRRNDYYVLATLEGNGSFGPISLTGSDEPYM” it is “failed”. On to “MFSFFSRWYQERFSDPQAVTLLAILVGLALVLYFAGGLLAPLLVALVLAFLLEWPVAQMLKLGINRTTAASLVLIIFLGIVVLLTFGLIPSVWRQGVSLMTDLPSMIDKGLQTVQGLATQYPQFISVEQLNLMVAELKKLLDTQHVLDIAKQLIGYSASLLVLMVYAILVPLLVFFFLKDKDQLISGSKRFFPTNRQLARKVWFEMHQQIFNYIRGKVIEIVIVGVASYILFAFMGLSYSALLGVLTGLSVLIPYVGATLVTLPIMLVAFFQWGFSSEFGYLMLGYGIIQALDGNVLVPILFSDAVDLHPVIIIAAVLVFGGLWGVLGVFFAIPLASLVKAVINAWPKTEIEPSASAPPQK”, for which the protein production result is reported as “failed”. Next, “MFSIVFPVIAPVLIVVAVGFGWARAGRPFDTATVSALGLGLGTPFLLTDVLMSANIAADALAAMGLAALLTLAGMAVGGALTLRLLKLPQAVFLPSMIFGNTGNIALPLCLFAFGDEGLALSIGYFTVVIVIQFSATALISSGERPVPVILRNPVIWTLLVVGTLKAGGIALPGWLADTAHMVGGMCIPVMLLALGVSLARLKVAGLGVALLLGAVKIALGVALGYATVLALDLHGAARGVVLIQSAMPPAVFNYLFAARYNQRPEEVAGLVIVSTGLSVLTMPLLLWGAMADM”: “failed”; “MFSKLKKTWYADDFSYFIRNFGVFTLIFSTMTLIILQVMHSSLYTSVDDKLHGLSENPQAVIQLAINRATEEIKDLENARADASKVEIKPNVSSNTEVILFDKDFTQLLSGNRFLGLDKIKLEKKELGHIYQIQVFNSYGQEEIYRVILMETNISSVSTNIKYAAVLINTSQLEQASQKHEQLIVVVMASFWILSLLASLYLARVSVRPLLESMQKQQSFVENASHELRTPLAVLQNRLETLFRKPEATIMDVSESIASSLEEVRNMRFLTTSLLNLARRDDGIKPELAEVPTSFFNTTFTNYEMIASENNRVFRFENRIHRTIVTDQLLLKQLMTILFDNAVKYTEEDGEIDFLISATDRNLYLLVSDNGIGISTEDKKKIFDRFYRVDKARTRQKGGFGLGLSLAKQIVDALKGTVTVKDNKPKGTIFEVKIAIQTPSKKKK”: “failed”. For the sequence “MFSLREYRNKADRLADFLPWAALVAPGVVLNKDGSFQRSARFRGPDLDSATPAELIATTARLNSALRRLGSGWAIFVEAVRRPAHDYPESDFPDAASALVERERAAQFAEEGAHFESAYYLTLVWMPPAEDAARAESWLYEGKAHQGVQARELLELFSDRTDRLLRLIEGFVPEAAWLDDSETLTYLHSCISTRNHRVRVPETPMHLDALLADEPLTGGLEPRLGRAHLRTLTVVGFPSATFPGILDELNSQGFAYRWSTRAIMLDKTDAAKLLGKIRRQWFAKRKSVAAILKEVMTNEASALLDSDASNKAADADAALQELGSDLQGMAYVTATVTVWDEDAAMAAEKLRLVEKVIQGRDFTVIVEGMNALEAWLGSLPGHVYANVRQPPISTLNLAHMIPLSAVWAGPEWDAHFRAPPLFYARTEGSTPFRFALHVGDVGHTLIVGPTGAGKSVLLALMALQFRRYDRAQIFAFDFGGSIRAAALACGGDWQDLGTSLAGDGAGAVMLQPLARIDEPAERNWAAEWLQAVLTGEGVTVDPATKEHLWSALTSLSTALVAERTLTGLAVLLQSQALKQALAPYCIGGPFGRLLDAEAEQLGAGKFQAFETEGLTGSAAAPAVLSYLFHRIEGRLDGSPTLIIIDEGWLVLDSPAFAAQLREWLKTLRKKNASVVFATQSLADIETSAIAPAIIESCPTRIFLPNERAIEPQILSVYRRFGLNDRQIEIIARAAPKRDYYCQSARGNRLFELGLGEVALAFAAASSKTDQLAISELTETHGTGGFARAWLRHRGLAWAADMLPPDPVPPTRSDQAAGQPKE”, the protein production entry is “failed”.

With “MFSLRSALILALLIIASLVNTKYSLPLALLVVGLTYLLDEQRLLPYASIVSFLIPMVYPLETSYVPMIYALSSIGILASKYSRLLSSVLIILGVSILPLGDVQKYLILYLTAFLLLGVDIRGTLGGGIIMLILATQGYVPYDLAFYTILFGVLSLTTLYKIKVTRYHAIAILSAIFPLLYSYFPLPSFLVSLGSALVFPPALFSTSILLYVEGFKQGIYGLLLILLSLVYNRYEKYFRTISMVLVSAGLSIFSSVFPPLILILIVIYFLEKGKVLTYSQYFLIPLSLYLLIQGSYQSLVYSSIALIIVSTLRMILRTTDSNRFKKLVKLMNARIVGGIISLLIEIILFFIALQYLVFPLSYVALTLSVIYAVFIFRERNAFVHFSLSAVLALFFNPVFALGGIKLKDSLNVIVVALTIIMGILFSHTLYFSIISVFLSVSYLLQKFDIHDLVPLSVISIVSIIPGITWTYVLPPILLSFSYLITKKYSYELGLSSMFCIIILIHYLIV”, the protein production result is listed as “failed”. With “MFSPQASAAYDDLHEGYATYTGSGYSGGAFLLDPIPSDMEITAINPADLNYGGVKAALAGSYLEVEGPKGKTTVYVTDLYPEGARGALDLSPNAFRKIGNMKDGKINIKWRVVKAPITGNFTYRIKEGSSRWWAAIQVRNHKYPVMKMEYEKDGKWINMEKMDYNHFVSTNLGTGSLKVRMTDIRGKVVKDTIPKLPESGTSKAYTVPGHVQFPELEHHHHHH”, the protein production result is given as “not failed”. As for “MFSRVPAKSIARFRCVSESIHRRPDVTEQSLTKSMSRPRLLFALEVNKDLLFFSSPQPQNPYDNSSLVATPYKRFPKYLPTRICTTLGGLVFLQKWLRKKTRVICNPVSGDYITLPKVKATGVGESYFGFDPITKQFKVLCMTWSRYGTPNTHQVLTLETGKRLWRTIQDPILPHYRSFDRICINGVLYYGADFEESQSSKIVCFDFRFEKFSFINIADEGMFRGSYKWTLFNYKGKLGAHQYSRNGELVLWVLEDAENHKWSKSICILPPIVHNSRIVGVTGTGEIVFSPYACYMPSPFYIFFYNIQTKTCTRVHVKGFEEFKHNFTLLHTFLDFVEDTKFM”, the protein production result is reported as “failed”.

In the case of “MFTESSPAMDPDLPESETRPEFNPSSTDSTAMAESTDAGEPTAFELASSQVTSVADLPPERFNSLDELTHDLGSLHELSTRGSWQAILEKISQARALFLLTKPHEHLTYLTYQVMALAKLRRSDEASHELNSLHDFDGTHYRYESFPEIYPNRRGSMVPFSLRWLYALIPTKLGNRQEGLDRLYVLLDFVRDRIREKESQSLESSVELWKKRETFVMNCLLGFHLGHKEFGVSLDLMKELINRDPLDPVLISKLGSVQMQFGDVEGAKTTFDRVEKMLNEGKSNGLLNEIQFNNLVGRNKALVYVVAKDYVSAVREYDKCIERDNSDIIAVNNKALCLMYLRDLSDAIKVMESALERVPTAALNESLVVNLCSMYELAYVNHTDVKRTLNNWIARVAPDDFDSSCTRV”, the protein production entry is “failed”. Regarding “MFTETGLKSGRRTMRFARLLLLPLIVIGTLSGCAVNMADIHGFNVISLEQEKELGTKFAAEIEKQYPVYNDPEAQKYVDRLGRRLLTGAREVSFDYVFKVVKDDSVNAFAIPGGRLYVHTGLLKAAQSETEVAAVMAHEISHAVARHGTRQMTQQYGYSLVLSLVLGQNSNMLAQIAGELFGKAGMMSYSRDYENQADFLGVETMSKAGYNPQGMVSFFQKLDTMGQQNPSALTKFFSSHPLTSERIQRVQAEIAQLPPRTYPPVDNTDLQKIRARIKLEHHHHHH”, the protein production entry is listed as “failed”. The entry for “MFTGSIVALVTPMDEKGNVSRSCLKKLIDYHVANGTSAIVSVGTTGESATLSHDEHGDVVMMTLELADGRIPVIAGTGANATAEAISLTQRFNDSGIVGCLTVTPYYNRPTQEGLFQHFKAIAEHTDLPQILYNVPSRTGCDMLPETVGRLAEIKNIIAIKEATGNLTRVHQIKELVSDDFILLSGDDASALDFMQLGGHGVISVTANVAAREMADMCKLAAEGQFAEARAINQRLMPLHNKLFVEPNPIPVKWACKALGLVATDTLRLPMTPITDHGRDIVKAALQHAGLL” is “not failed”; for “MFVFGAYWFDCGERAVLPANSRGALRPQCTRLRFWRGRYWHRGAVSALRRVRPLSASTPSPRVLDGSQSLADTPDNVQQLLQHMSQELDSVVQSMVHLEEYALEQVEKLKGAMEADLRKLALYEEEQAFAQKLTEQLQKKEGAVFEAMRHFLFHVVGLQEQTVAITNELQVLHEFVSENHERVELVLESLRERGLFGSRQDVFEGEVKKKLDRFDPEI” it is “failed”. Next, “MFVQSALHQLKVAVDTSIQMLDQYTEIDLKIAPIQSKRSLFEMYAHLSLICHADLLILNGSTEKELHTFYKEQTPETIAQMQKTMIQGYDLLSKTFLSYSNEQLAEMKTAYWGISYSRFEWLLEIVAHFYHHRGQIHILLCEHMKDPNIPLFQ”: “not failed”. Next, “MFVRSHCLEVTNLRKWFYYFNRRNKRMQWLKVILAGFIEIIWVTGLDQAHSLFTWIFTLFFIALSFFLVIDASKHLPVGTVYAFFVGIGAVGTVLVDMIFFNQPFTFTKIFLIMTLILGIIGLKLTTDATKEGR”: “failed”; “MFWDNLTVAAKFFIEISVELTILFIGITFLVGLSQEYVPDETIKRALGGRNKVIGSILGAGFGAITPFCSCSTIPLLLGMLKAGAPFAAAMAFLFSSPLLNPVIISLFVILLGWKVTALYFVVVFMSTIAIGLLLDWLGFSNQIKPVAVVRNRCDCEQDTNAKSRIQRSAVFAFSLFRQLMPYLLLGAGIGAFIHGFVPTEVITRVAGPSNPLAVPVAAIIGVPIYIRAETMIPIGLALIKKGMSVGAVLALIIGGAGASIPELTLLSSIFKKRLLTAFVITVFSIAVIAGYLANLLTL”: “failed”.
